The values below are quoted from earlier work in PMC3312455.

Values joined by “and” are separate entries in the source; they are usually repeats but may differ in a detail not shown here. Identical values can stand only once.

Holding throughout (experiment): SPR
On the technique in general: Surface plasmon resonance follows binding to a sensor surface in real time, without labels.

In data set [1] the target is FGFR1-IIIc D2-D3 (Homo sapiens) (UniProt P11362).
The target of data set [2] is FGFR2-IIIb ECD (Homo sapiens) (UniProt P21802).
The target in data set [3] is PDGFRα ECD (Homo sapiens) (UniProt P16234).
The target of data set [4] is αvβ3 integrin receptor (Homo sapiens) (UniProt P06756).
Data set [5] addresses FGFR3-IIIc D1-D3 (Homo sapiens) (UniProt P22607).
Data set [6] has as its target FGFR1-IIIc ECD (Homo sapiens) (UniProt P11362).
Data set [7] has as its target FGFR2-IIIb D2-D3 (Homo sapiens) (UniProt P21802).
The target of data set [8] is FGFR3-IIIc D2-D3 (Homo sapiens) (UniProt P22607).
Data set [9] concerns the target VEGFR1/Flt ECD (Homo sapiens) (UniProt P17948).
In data set [10] the target is Neuropilin-1 ECD (Homo sapiens) (UniProt O14786).
A further data set addresses agrin (UniProt O00468).
Data set [11] concerns the target FGFR1-IIIc D1-D3 (Homo sapiens) (UniProt P11362).
For data set [12], the target named is PDGFRβ ECD (Homo sapiens) (UniProt P09619).
The target of another data set is c-MET ECD (Homo sapiens) (UniProt P08581).
Sequence of c-MET ECD (Homo sapiens) (P08581 25-932): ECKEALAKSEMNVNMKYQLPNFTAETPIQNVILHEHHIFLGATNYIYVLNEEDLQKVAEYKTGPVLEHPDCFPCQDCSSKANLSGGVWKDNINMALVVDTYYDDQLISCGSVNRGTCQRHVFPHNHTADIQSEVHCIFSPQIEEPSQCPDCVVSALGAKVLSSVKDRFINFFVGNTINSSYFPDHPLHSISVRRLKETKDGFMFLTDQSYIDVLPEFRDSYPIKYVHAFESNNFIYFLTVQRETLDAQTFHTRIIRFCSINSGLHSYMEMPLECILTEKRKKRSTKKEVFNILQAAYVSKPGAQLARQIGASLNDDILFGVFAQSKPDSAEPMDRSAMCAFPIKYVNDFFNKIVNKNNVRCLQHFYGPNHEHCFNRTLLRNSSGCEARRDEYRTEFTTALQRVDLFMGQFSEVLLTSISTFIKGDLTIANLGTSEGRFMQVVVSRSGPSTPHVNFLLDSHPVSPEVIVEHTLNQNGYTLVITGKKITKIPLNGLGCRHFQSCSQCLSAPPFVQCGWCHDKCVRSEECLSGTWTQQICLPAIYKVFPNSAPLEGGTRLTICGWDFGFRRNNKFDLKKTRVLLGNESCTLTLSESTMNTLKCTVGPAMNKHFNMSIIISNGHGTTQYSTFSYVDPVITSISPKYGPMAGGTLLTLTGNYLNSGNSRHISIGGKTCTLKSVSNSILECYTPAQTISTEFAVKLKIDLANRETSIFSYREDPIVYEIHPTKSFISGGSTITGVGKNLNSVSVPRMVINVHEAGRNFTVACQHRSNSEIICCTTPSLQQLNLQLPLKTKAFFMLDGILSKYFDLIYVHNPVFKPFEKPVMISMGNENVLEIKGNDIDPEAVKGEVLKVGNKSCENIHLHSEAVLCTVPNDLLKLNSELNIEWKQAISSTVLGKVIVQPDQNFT

Sequence of FGF1 (P05230 16-155): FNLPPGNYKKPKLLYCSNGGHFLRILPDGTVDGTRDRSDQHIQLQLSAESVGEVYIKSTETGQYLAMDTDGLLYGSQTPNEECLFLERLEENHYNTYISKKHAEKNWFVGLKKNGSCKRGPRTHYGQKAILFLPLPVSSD
Sequence of VEGF-A165 (P15692 whole entry): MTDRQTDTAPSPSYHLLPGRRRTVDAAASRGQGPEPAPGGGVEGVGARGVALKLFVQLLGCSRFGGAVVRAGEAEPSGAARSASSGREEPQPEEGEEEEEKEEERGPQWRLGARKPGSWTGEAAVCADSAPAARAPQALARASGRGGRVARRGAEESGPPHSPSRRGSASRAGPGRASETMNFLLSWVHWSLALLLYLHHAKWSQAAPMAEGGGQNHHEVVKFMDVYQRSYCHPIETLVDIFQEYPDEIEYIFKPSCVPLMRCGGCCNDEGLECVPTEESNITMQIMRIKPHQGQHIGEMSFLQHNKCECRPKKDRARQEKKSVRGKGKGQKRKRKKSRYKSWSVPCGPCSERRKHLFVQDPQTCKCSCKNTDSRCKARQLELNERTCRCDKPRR
Sequence of FGF2 (P09038 143-288): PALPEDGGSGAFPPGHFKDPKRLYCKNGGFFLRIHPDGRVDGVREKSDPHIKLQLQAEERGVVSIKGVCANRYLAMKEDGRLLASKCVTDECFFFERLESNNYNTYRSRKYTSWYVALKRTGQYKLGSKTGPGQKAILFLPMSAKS
Sequence of FGFR2-IIIb ECD (Homo sapiens) (P21802 22-377): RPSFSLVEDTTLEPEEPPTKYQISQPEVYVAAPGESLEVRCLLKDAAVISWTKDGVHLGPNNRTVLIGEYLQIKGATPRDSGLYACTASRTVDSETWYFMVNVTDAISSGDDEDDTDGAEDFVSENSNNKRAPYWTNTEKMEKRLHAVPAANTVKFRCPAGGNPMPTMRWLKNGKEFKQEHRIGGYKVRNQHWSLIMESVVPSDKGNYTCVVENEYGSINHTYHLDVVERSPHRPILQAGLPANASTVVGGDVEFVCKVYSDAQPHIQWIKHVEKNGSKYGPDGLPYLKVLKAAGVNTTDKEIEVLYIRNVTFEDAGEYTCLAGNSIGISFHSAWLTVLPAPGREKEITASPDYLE
Sequence of FGF4 (P08620 31-206): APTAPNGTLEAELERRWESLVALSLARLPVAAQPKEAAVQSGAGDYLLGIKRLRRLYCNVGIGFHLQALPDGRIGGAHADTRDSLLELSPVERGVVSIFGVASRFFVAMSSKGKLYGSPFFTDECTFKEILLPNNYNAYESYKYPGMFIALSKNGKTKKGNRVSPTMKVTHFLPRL
Sequence of FGFR1-IIIc D2-D3 (Homo sapiens) (P11362 142-365): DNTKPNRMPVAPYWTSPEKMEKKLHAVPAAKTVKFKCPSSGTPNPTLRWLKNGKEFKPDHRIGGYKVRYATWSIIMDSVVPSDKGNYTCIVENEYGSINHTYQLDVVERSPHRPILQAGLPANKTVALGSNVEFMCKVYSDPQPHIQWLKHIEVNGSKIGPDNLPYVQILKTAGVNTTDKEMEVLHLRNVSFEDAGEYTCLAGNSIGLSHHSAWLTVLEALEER
Sequence of αvβ3 integrin receptor (Homo sapiens) (P06756 31-1048, chain 1 of 2): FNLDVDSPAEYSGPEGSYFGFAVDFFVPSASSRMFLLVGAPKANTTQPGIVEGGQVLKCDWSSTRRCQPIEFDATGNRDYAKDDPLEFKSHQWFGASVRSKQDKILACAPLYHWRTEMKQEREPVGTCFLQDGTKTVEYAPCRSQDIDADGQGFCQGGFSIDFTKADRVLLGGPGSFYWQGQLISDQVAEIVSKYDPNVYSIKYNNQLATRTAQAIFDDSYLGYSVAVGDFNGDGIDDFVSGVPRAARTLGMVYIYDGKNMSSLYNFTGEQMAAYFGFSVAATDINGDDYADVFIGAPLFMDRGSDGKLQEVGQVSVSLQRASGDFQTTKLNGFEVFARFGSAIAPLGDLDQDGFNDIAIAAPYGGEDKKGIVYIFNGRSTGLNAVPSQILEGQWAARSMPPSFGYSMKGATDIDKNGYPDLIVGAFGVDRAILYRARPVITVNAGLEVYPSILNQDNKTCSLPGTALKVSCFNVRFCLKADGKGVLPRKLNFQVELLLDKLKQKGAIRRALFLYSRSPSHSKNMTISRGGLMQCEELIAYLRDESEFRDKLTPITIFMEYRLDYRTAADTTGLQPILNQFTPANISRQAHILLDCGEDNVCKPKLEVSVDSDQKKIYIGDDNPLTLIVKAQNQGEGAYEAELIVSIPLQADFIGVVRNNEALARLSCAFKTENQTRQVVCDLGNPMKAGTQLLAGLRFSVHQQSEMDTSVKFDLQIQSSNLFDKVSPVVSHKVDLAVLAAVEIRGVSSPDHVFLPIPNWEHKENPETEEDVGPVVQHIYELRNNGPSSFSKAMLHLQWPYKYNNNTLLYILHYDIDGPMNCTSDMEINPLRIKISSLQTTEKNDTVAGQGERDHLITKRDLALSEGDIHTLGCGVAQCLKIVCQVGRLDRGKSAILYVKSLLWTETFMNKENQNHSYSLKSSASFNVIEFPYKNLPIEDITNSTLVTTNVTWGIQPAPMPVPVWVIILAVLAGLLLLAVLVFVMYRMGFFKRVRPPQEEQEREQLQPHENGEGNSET
Sequence of αvβ3 integrin receptor (Homo sapiens) (P05106 27-788, chain 2 of 2, further chain): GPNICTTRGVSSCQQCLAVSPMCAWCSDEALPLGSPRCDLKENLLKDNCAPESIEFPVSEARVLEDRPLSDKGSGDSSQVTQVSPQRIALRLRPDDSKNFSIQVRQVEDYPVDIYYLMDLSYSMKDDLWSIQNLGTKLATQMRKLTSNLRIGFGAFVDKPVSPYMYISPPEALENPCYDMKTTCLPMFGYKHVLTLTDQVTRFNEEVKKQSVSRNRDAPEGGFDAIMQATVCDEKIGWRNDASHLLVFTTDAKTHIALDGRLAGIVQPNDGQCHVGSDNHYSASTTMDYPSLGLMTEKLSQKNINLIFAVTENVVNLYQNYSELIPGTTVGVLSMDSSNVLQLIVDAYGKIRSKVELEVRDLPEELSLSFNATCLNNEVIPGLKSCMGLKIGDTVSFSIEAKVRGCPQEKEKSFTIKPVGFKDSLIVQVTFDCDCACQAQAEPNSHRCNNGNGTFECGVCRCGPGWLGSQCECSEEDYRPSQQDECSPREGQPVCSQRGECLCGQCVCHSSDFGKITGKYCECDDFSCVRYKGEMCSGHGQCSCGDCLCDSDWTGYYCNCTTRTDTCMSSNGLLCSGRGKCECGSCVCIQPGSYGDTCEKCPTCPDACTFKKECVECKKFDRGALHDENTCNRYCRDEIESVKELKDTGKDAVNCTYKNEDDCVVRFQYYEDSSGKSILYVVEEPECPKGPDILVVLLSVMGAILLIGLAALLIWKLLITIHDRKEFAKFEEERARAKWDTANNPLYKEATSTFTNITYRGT
Sequence of PDGFRα ECD (Homo sapiens) (P16234 24-528): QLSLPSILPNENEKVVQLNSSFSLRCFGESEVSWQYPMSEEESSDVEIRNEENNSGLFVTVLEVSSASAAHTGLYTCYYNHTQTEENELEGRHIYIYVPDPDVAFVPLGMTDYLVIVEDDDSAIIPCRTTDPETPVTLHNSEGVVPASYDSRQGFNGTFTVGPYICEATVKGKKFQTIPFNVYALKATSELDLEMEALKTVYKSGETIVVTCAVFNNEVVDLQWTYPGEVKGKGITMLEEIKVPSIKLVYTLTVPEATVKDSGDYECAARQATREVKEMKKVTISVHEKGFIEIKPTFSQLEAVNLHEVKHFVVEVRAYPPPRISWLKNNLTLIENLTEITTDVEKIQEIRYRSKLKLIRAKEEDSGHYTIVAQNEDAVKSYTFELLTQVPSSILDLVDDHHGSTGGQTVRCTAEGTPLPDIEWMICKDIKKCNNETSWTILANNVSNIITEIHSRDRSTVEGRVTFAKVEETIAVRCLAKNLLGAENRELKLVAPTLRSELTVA
Sequence of PDGF-BB (P01127 82-190): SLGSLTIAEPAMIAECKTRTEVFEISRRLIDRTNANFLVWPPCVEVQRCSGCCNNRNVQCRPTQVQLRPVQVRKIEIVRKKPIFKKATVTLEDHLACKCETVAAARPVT
Sequence of HIV-Tat (P04326 whole entry): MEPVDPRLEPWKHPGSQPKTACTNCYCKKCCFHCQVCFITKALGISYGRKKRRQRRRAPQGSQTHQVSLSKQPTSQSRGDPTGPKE

For FGF4 (from UniProt P08620), the Kd (in general, the equilibrium constant for the complex coming apart) is 165 nM in [1] and 0.42 nM in data set [2].
With PDGF-BB (from UniProt P01127), the Kd in data set [3] was 150 nM.
Take HIV-Tat (from UniProt P04326): the Kd in [4] is 32 nM.
As to FGF1 (from UniProt P05230), the Kd in [5] was 916 nM; in data set [2], 0.8 nM; in data set [6], 35 nM; in data set [4] it was 1100 nM; in data set [7] it was 59.6 nM; in data set [8], 230 nM.
As for VEGF-A165 (from UniProt P15692), the Kd is 0.007 nM and 0.03 nM in data set [9]; 2000 nM in [10].
For the substance FGF2 (from UniProt P09038), the Kd in data set [1] was 62 nM; in data set [2], 0.5 nM; in the data set with agrin it was 2.5 nM; in [11] it was 99 nM.
On to PDGF-AA (from UniProt P04085), for which the Kd in [3] is 13.4 nM; in data set [12], 453 nM.
Turning to HGF (from UniProt P14210), the Kd in the data set with c-MET ECD (Homo sapiens) is 50 nM and 90 nM.
